Consider six molecules from US7384632B2, “Agonist anti-trk-C monoclonal antibodies” (Genentech, Inc., priority 2000, dated 2008).

The test system of test [1] is cisplatinum induced neuropathy. Put plainly: Cisplatinum induced neuropathy in adult rats, H-wave sensory conduction velocity. The following applies: 1 mg/kg three times per week subcutaneously for four weeks, continued cisplatinum. The class given is in vivo, rat. As to the method:
In order to create an animal model of cisplatinum induced neuropathy, adult rats were dosed with cisplatinum twice a week for sixteen weeks with 1 mg/kg intraperitoneally (IP). At this point, rats were split into four groups. All four groups continued receiving cisplatinum twice weekly. […] The NT-3 doses were given subcutaneously, while the Mabs and saline were administered IV. This treatment regime was continued for an additional four weeks, for a total of twenty weeks of cisplatinum administration.

Test [2] deals with cisplatin sensory neuropathy. The following applies: rats, cited from earlier work.
The subject of the next test is pyridoxine toxicity. Conditions: cited from earlier work.
The target in the next test is T1, p75^NTR (LNGFR, p75) (Homo sapiens, UniProt P08138).
T1 construct: host or cells: neurotrophin-responsive neurons
T1 sequence (P08138 29-427): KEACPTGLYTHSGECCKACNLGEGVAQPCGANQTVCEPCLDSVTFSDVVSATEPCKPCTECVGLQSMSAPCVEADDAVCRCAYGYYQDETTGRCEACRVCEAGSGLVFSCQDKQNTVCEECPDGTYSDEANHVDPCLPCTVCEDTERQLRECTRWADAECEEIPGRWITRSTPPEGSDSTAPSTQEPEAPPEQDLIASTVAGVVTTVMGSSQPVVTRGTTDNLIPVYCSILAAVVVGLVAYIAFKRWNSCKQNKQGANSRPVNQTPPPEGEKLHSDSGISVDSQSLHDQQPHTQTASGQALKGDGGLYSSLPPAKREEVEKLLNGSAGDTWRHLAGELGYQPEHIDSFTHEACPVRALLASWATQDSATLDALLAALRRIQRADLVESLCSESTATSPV
The following applies: equilibrium binding studies, neurotrophin-responsive neurons; cited from earlier work.

In a further test the target is gD-trkC (Homo sapiens, UniProt Q16288). The test is described as follows: BIAcore surface plasmon resonance (SPR) affinity. In kind it is binding. On the procedure:
Affinities of anti-trkC agonist monoclonal antibodies were determined using BIAcore-2000™ surface plasmon resonance (SPR) system (BIAcore, Inc., Piscataway, N.J.). CM5 biosensor chips were activated with N-ethyl-N′-(3-dimethylaminopropyl)-carbodiimide hydrochloride (EDC) and N-hydroxysuccinimide (NHS) according to the supplier's instructions. In the first series of binding experiments, the antigen, gD-tagged trkC, was diluted into 10 mM sodium acetate buffer (pH 4.8), and injected over the activated chip at a concentration of 0.09 mg/mL. Using variable exposure times, four ranges of antigen density were achieved: 14,000-17,000 response units (RU), 7000-9000 RU, 2000-3000 RU, and 400-600 RU. The chip was blocked with ethanolamine.
In the first series of kinetic measurements, anti-trkC antibodies (IgG's) were diluted into running buffer (PBS containing 0.05% Tween-20 and 0.01% sodium azide) and 0.03 mL (667 nM) was injected over the biosensor chip at 25° C. at a flow rate of 0.01 mL/min.
In a second series of experiments, the IgG's (0.1 mg/mL in 10 mM sodium acetate, pH 4.8) were immobilized as described above, except that antibody density was limited to 1000-2000 RU. Two-fold serial dilutions of gD-trkC in the range of […] to 29 nM were then injected over the biosensor chip for kinetics measurements as described above.
The dissociation phase of each kinetic curve were fit to a single exponential dissociation rate (koff), and these rates were used in the calculation of the association rate (kon) from the injection phase, using a simple 1:1 Langmuir binding model (Lofas & Johnsson, 1990).
Equilibrium dissociation constants, Kd's, from SPR measurements were calculated as the ratio koff/kon.
The affinities of anti-trkC antibodies for gD-trkC were measured in SPR kinetics experiments with either antigen or antibody immobilized. Apparent affinities determined from experiments using low densities of immobilized antigen (0.4 to 0.6 ng/mm2), were generally consistent with those determined in experiments using immobilized IgG (see Table 2). […] In some cases, no binding could be detected when trkC was injected over immobilized IgG. This may have occurred because immobilization of the IgG led to steric blocking of the antigen-binding site.

The next test has as its target wildtype trkC (Homo sapiens, UniProt Q16288, S70N). Put plainly: Binding to trkC single amino acid mutants (EC50 ratio). Conditions: wildtype trkC (reference).
For the next test, the target named is T2, trkC L284E (Homo sapiens, UniProt Q16288, L315E/S70N).
T2 construct: made in house
Described as above. Conditions: NB = no binding observed.

The target of another test is T3, trkC R285A (Homo sapiens, UniProt Q16288, R316A/S70N).
T3 construct: made in house
The test is described as above. Conditions: NB = no binding observed.

The target of another test is T4, trkC L286H (Homo sapiens, UniProt Q16288, L317H/S70N).
T4 construct: made in house
Described as above. Conditions: NB = no binding observed.

The target in the next test is T5, trkC E287K (Homo sapiens, UniProt Q16288, E318K/S70N).
T5 construct: made in house
The description is as above. Conditions: NB = no binding observed.

The next test deals with T6, trkC H318A (Homo sapiens, UniProt Q16288, H349A/S70N).
T6 construct: made in house
Described as above.

The next test deals with trkC N335A. The arrangement: species or system human. Conditions: NB = no binding observed.
The mark [3] stands for this setting: gD-trkC binding to immobilized IgG's (1000-3000 RU).

Residue numbers refer to the chain shown, from its start. Read-outs that look alike come from different tables or passages of the source.

Description for trkC E287K: (§1) Site-directed mutagenesis approach was used to determine the contribution of selected individual amino acid residues of domain 5 in the recognition by anti-trkC antibodies. […] A total of 26 single amino acid mutations were made and evaluated for their effect on binding to anti-trkC monoclonal antibodies. The values shown in Table 5 represent the ratio of binding to anti-trkC antibody of mutant vs wildtype trkC.
Description for trkC H318A: (§2) A total of 26 single amino acid mutations were made and evaluated for their effect on binding to anti-trkC monoclonal antibodies.
Description for trkC L284E: as §1
Description for trkC L286H: as §1
Description for trkC N335A: as §2
Description for trkC R285A: as §1
Description for wildtype trkC: as §1

For the molecule “NT-3: neurotrophin-3, the natural ligand of trkC receptor; positive control and comparator”, the “sensory conduction velocity (H-wave)” value in [1] was “improvement of this lowered conduction velocity”. The “cytoplasmic distribution of neurofilament protein in large sensory neurons and numbers of myelinated fibers in sural nerves” value in test [2] (cisplatin) is given as “corrected”. The “H-reflex-related sensory nerve conduction velocity reduced by cisplatin” value in [2] was “restored to normal levels”. The “behavioral and electrophysiological sequelae of pyridoxine toxicity (beam-walking, H waves)” value in the test with pyridoxine toxicity (NT-3 5-20 mg/kg/day, s.c., during chronic pyridoxine treatment) is “largely attenuated”. Also, in the test with pyridoxine toxicity (NT-3 administration during chronic pyridoxine treatment), the “degeneration of sensory fibers in the dorsal column of the spinal cord” value is “prevented degeneration of sensory fibers in the dorsal column of the spinal cord”.
Consider “NGF: nerve growth factor, first identified member of the neurotrophin family”, for which, in the test with p75^NTR (LNGFR, p75), the Kd is 2 nM.

B1: BDNF: brain-derived neurotrophic factor, a neurotrophin (protein, UniProt P23560 19-247, looked up)
Neurotrophic factor BDNF …: APMKEANIRGQGGLAYPGVRTHGTLESVNGPKAGSRGLTSLADTFEHVIEELLDEDQKVRPNEENNKDADLYTSRVMLSSQVPLEPPLLFLLEEYKNYLDAANMSMRVRRHSDPARRGELSVCDSISEWVTAADKKTAVDMSGGTVTVLEKVPVSKGQLKQYFYETKCNPMGYTKEGCRGIDKRHWNSQCRTTQSYVRALTMDSKKRIGWRFIRIDTSCVCTLTIKRGR
For B1, the Kd in the test with p75^NTR (LNGFR, p75) was 2 nM.

B2: Mab 2250: murine IgG1 agonist anti-trkC monoclonal antibody; hybridoma ATCC PTA-2149; heavy chain SEQ ID NO: 42, light chain SEQ ID NO: 49 (antibody)
heavy: NQVQLQQSGAELMQPGASVKISCKSTGYTFSNFWIEWVKQRPGHGLEWIGEILPGSDNTNYNEKFKGKATFTADTSSNTAYMQLSSLTSEDSAVYYCARKNRNYYGNYVVWGQGTLVTVSAC
light: NDIVMTQSPASLAVSLGQRATISYRASKSVSTSGYSYMHWNQQKPGQPPRLLIYLVSNLESGVPARFSGSGSGTDFTLNIHPVEEEDAATYYCQHIRELTRSARGQSWKKRC
modifications: Murine
Take B2: the Kd amounted to 8.7 nM with gD-trkC (IgG's binding to immobilized gD-trkC (400-600 RU), read-out: Kd, Immobilized gD-trkC); 8.7 nM with gD-trkC (Table 3, read-out: Affinity Kd); 28 nM with gD-trkC (gD-trkC binding to immobilized IgG's (1000-3000 RU), read-out: Kd, Immobilized IgG). Further, the “ratio of binding of mutant vs wildtype trkC (EC50 divided by EC50 of wildtype trkC)” value with wildtype trkC turned out to be 1.0; with trkC L284E it was 0.6; in the test with trkC R285A it was 2.6; with trkC L286H, 0.4; with trkC E287K it was 0.8; in the test with trkC H318A, 1.0. In addition, the “ratio of binding of mutant vs wildtype trkC (EC50 divided by EC50 of wildtype trkC)” value in the test on trkC N335A is 0.5.

B3: Mab 2345: human IgG2 agonist anti-trkC monoclonal antibody; hybridoma ATCC PTA-2146; heavy chain SEQ ID NO: 47, light chain SEQ ID NO: 54 (antibody, listed as Homo sapiens, V domains shown)
VH: NQVQLQESGPGLVKPSQTLSLTCTVSGGSISSGGYYWSWIRQHPEKGLEWIGYIFYSGRTYYNPSLKSRVTISVDTSKNQFSLKLNSVTAADTAVYYCARERIAAAGADYYYNGLDVWGQGTTVTVSSC
VL: NEIVLTQSPGTLSLSPGERATLSCRASQSVSSNYLTWYQQKPGQAPRLLIYGASSRATGIPDRFSGSGSGTDFTLTISRLEPEDFAVYYCQQYGRSPPITFGQGTRLEIKRC
On to B3, for which the “Kd, Immobilized IgG” value with gD-trkC (setting [3]) was “NDB”.

B4: Mab 2349: human IgG4 agonist anti-trkC monoclonal antibody; hybridoma ATCC PTA-2153; heavy chain SEQ ID NO: 48, light chain SEQ ID NO: 55 (antibody, listed as Homo sapiens, V domains shown)
VH: B3 VH with G34Y, E45G, F55Y, R59S, V70L, N86S, A108T, D116A
VL: B3 VL with E2G, L22F, V30G, N33T, T36A
Regarding B4, the “Kd, Immobilized IgG” value in the test with gD-trkC (setting [3]) is listed as “NDB”.
